# Measured values reported in the DeepSol protein solubility set.
# Assay: soluble on expression in E. coli; label from the status in PepcDB or PDB records
row,Sequence,soluble on expression in E. coli
1,RVMLRQTQYLNEAIKLMASKNLSVPFGMDCKDEYGDVARELEKTRRQLHDVIQMQINASDELATLTEVMTLSMSETKESA,not soluble
2,PLVKISGSSTVFPITEAVSEDFQAAKKGAIMVTAGIAGTGGGFKKFCRDEVDIVNASRPILSSEMEQCRQNGVQYIEMPIAFDALTVVVNPGNDWIKSMTVAELKKIWEPAAQEKILNWNQVNPAWPNARIKLFGAGADS,not soluble
3,MGSDKIHHHHHHMMDYFSMTSHQDTKPSAQTSQWPVPTDSVRYVIPEPIVRQLAHHPLTRELYPLAFGHYRRAAGHHMHREHHRDNLLIYCTDGKAFLNVAGEPYTVTAGDLLLLPAGVSHRYTADPDNPWTIHWVHYTGPLAEDFGQYMGFDDSTRIRHLGRQPRLLVDFNGLLSVRQTGFRARGLIHASNRLRQLLAAVPINADETSQARQAELDSLHSFMREHLEERLTLNQLAELSGLSPAHFATRYREQTGTSPIQHFLHLKVERACELLDTTSQSFADISRQLGYDDAYYFSRLFKKVMGKSPTDYRHTARH,not soluble
4,MTKCPKCKKIMLTKELDKNMRVCMNCDYHFPMNAKQRIESLMDEQSFEEFNQGMLSENPLGFPGYLEKLEKDREKTSLNEAVVTGKGTIGGHPAVVAVMDSSFRMGSMGSVVGEKITLAIEKAKADKVPFIIFTASGGARMQEGVLSLMQMAKTSSALKLFSEEQGLIISVMTHPTTGGVSASFASLGDYNFAEPGALIGFAGRRIIEQTIGEKLPEDFQTAEFLLKHGQLDAVIHRDDMKKTLENLLDMHQTGGDIEWLQDLEHHHHHH,not soluble
5,MDAELFPRTRAETAPGAVHLPDWLSPGQQRELLDACREWARPPAGLRTVRTPGGGTMTARQVCLGRHWYPYGYAATAVDGDGAPVKPFPARLDGLARRAVTDALGAEAVAPAPYDIALINFYDADARMGMHRDADERTDAPVVSLSLGDTCVFRFGNPETRTRPYTDTELRSGDLFVFGGPSRLAYHGVPRVHPGTAPPELGLRGRLNITLRVSGFLEHHHHHH,not soluble
6,MLRFYAMKQITEPGTYEIRGEVAEGDFSWDATNFAGFFYDVNDDVSTESLTVTGLNGGNVIPEGGLVYETTIQMVDYEYSKPSVGWDQFPVLGFFAEEYIPINADKADKLAKLVLDSDDKYTIRTGEQLDLGEGYAIEAKQVDVDGEKVWLEFTKDGEFVDDEIISVVSGSDNTWEVELDDIQDEDDVVVLRVHVNQVFQGAVDSIAQIEGIWLIDYANAMKIESDDEFGDLDNVKINGATLTITNEDTFTLTRDDEVEIGQGMFFKVADTAASDLRYYPFVEKTIDGEVVDDDEDDDNVTEPVDNDTEVEEPTEEPTEGPTEELEHHHHHH,not soluble
7,MQNKIVKIGNIDVANDKPFVLFGGMNVLESRDMAMQVCEAYVKVTEKLGVPYVFKASFDKANRSSIHSYRGPGMEEGLKIFQELKDTFGVKIITDVHEIYQCQPVADVVDIIQLPAFLARQTDLVEAMAKTGAVINVKKPQFLSPSQMGNIVEKIEECGNDKIILCDRGTNFGYDNLIVDMLGFSVMKKASKGSPVIFDVTHSLQCRDPFGAASSGRRAQVTELARSGLAVGIAGLFLEAHPNPNQAKCDGPSALPLSALEGFVSQMKAIDDLVKSFPELDTSIGSHHHHHH,soluble
8,MAHHHHHHMMSQSLNALRSGTACFPTTIAQQRRWITRLYTSYYPGVLYPNQLVQHKQRLPPGVSLSTALKARTQTRQEQSVAGREVPEENETRGVSWTDASSTDVMHTGNARRQEKVSVATGRSYVPLGEVAKLELQGDYCMEGGLFQEALERYGVVAKAYSIAYPENHSQRIGILLKLASAFRHVGRLDSSKVNIENALKMLDASSRPSLELICEALLELGLTREAKSMKNEGAEAYEEAVEVLNLFHNWGESHRMLRLLPRLGRRFNLNFEEKFVYFSPFDYDRTFAIADQCMERAEKVYRETGDSNGIIRVLQCRKEMIDKKFFNLRDFAGRIHTMRGHWMRRAQHLTNAPTPDELLRYTPTIHQVYRDFKYELTAPIGREKEVMPGVNRVVLDMGNPYRRRGRLSNKMLRDADHNFANYVRREEYNA,not soluble
9,MGSDKIHHHHHHNDDDDKYYYPTNFENLSLPNDTIIAKGEDLTLKPTLNLINPKIYSWKIDGKEVSNEVNYTFSTSVGGKHEIIFEAQDSKGNTDKAQITVDVFAYYGGFYVINEGWAGHDPASVNYYKDGKWNFNIVESLGQTGTVGVIQDSYMYIVAKDAPYLTQIELANFNITKQLSTEIEEQLDYGQANSFCTINETTGILTASRGAYKINLNPLSIGNMLPQLNSESANGNGCKDILKSGDYVFVNNMDTIKIYKSSDLSFVKKLTALMKTGFAQTKDGNIWAANGQSLIKIDPKTLDETTVELPDNINVFYNQWAYTPTGLCASTTENALYIVNTTVVPGAYGDSYYGKNIYKYNTESKIAQEFFKAPSKIQSIYGAGIQVNPQNGDVYLIYTEDGYGTHYLNTNIYVADGQSGTQKQIIDYTGKYWFPSSIVFK,not soluble
10,MNARSTRFTQDEVLDLIIVGGGINGAGIAADATGRGLKVGLYDAKDFASATSSASSKLVHGGLRYLEHYEFRLVSEALAEREVLLKKAPHIVTPMRFRLPHRPFLRPAWMIRAGLFLYDNLGKRTSLPASHKVNLKAGSVTKPEMQIGFEYSDCWVDDARLVILNAMQAQEQGAEVLNYCTVEKAERMGDLWHVTLLDEQTQQRFERRSHALVNAAGPWVKQFLNENAHVSSPYGIRLIQGSHIIVPRIHDEPQAYILQNEDKRIVFVIPYLDDYSMIGTTDVEYKGDPRKVAITDAERDYLISIVNKHFMREIARSDIIAEFSGVRPLCDDESNSPQAITRDYTLSLDQQADEAPLLSIFGGKLTTYRKLGEAAMKHLAPFFPKMKAPWTADAPLPGGENFDYAALKNQLVAAFPFITESVIERWLRSYGSRTTQLLAGVTGIEDLGIAFSGELYQREIDYLCEKEFARHAQDIFWRRSKLGLNHDTSVVEEVESYLQQKFHAEQPLKATVLEHHHHHH,soluble
11,MSLRVIDGGVTAPKGFKANGYKEGKFGVAIIISEKDAVGAGTFTTNKVVAHPVVLSRELIKNRDKFRAIVANSGNANCFTKDGMEDAKEMQRLVAELFNINEDEVLVASTGVIGRKMDMNIIKDRINKVYNLIKEGNSSINAAKAIMTTDTKPKEIAVEFEVNGKTVRVGGIAKGAGMIAPNMLHATMLCFITTDIEIDKESLTNILQKVVDKTFNNISVDGDTSTNDTVFVLANGLSGVNYEECGEEFENALLYVCRELAKMIVKDGEGATKFMEVVVKGAKTEEDAVKASKAIVNSLLVKTAVFGGDPNWGRIVAAVGYSGADFNPEVVDVILSNYKDEVYLVKDGIPLADEGTEELKKAEEIMKSDEIKIVVDLKMGEFENVCYGCDLSYEYVRINAEYTTEGHHHHHH,soluble
12,GMEQQHPTIHTLKIETEFFKAVKERRKTFEIRKNDRNFQVGDILILEEYMNGMYLDDECEAEVIYITDYAQREGYVVLGIELH,soluble
13,MIAMDIREIGLRLVGEAIKAADPYRAVLNAVKVSDDKIIVQGKEFEIKGKVYVIALGKAACEMARAIEDILDVEDGVAVTKYGYGKELKRIKVIEAGHPIPDEKSILGAKEALSILNRARENDIVFILISGGGSALFELPEEGISLEDLKLTTDLLLKSGAKIHEINTVRKHISKVKGGKLAKMIKGTGIVLIISDVVGDNLEAIASGPTVKDPTTFEDAKRILELYDIWEKVPESVRLHIERGLRGEVEETLKEDLPNVHNFLIASNSISCEAIAREAQRLGFKAYIMTTTLEGEAKDAGLFIGSIVQEIAERGRPFEPPVVLVFGGETTVTIEGKGGKGGPNQEIALSATRKISDLEALIVAFDTDGTDGPTDAAGGIVDGTTYKKLREKGIDVEKVLKEHNSYEALKKVGGLLFTGPTGTNVNSIVIAIVTSKRGRT,soluble
14,MAHHHHHHMEGKKCFYITEKGKKQNFRNIKLITFDLDHTIWNIDGLLNYADKECYEYMKKNYRRLYDYLQEEYQLSITNLVKQLLENKIEDNNDGVQTLTNMRIDALKFLAKKTNYDEGKFVSEIQELWKEKKNDVHLFISPGTLEYLRELKRRGYTLGAITNGDSDVNGIKFLNEIFTFVIRSMDYNHSKPSVEIFNIAENILKKKNFHFEIHQWMHVGDDVYTDIMGAKNKNINCAWITMFRDGSEVPPNDWYPYLKLKLEENGDSHLSQYDPFADGLFSRFRRRDVVLPYEYIDIEIRHCRDLDAILA,soluble
15,MYSKIIERELETLKTIFQEASRANTHYEFISVVGKAVSEFLGSEGYRIEWDGRGSAKGNEVVLEIRINTYAKVNLYFPLKKGRKLSKVEEEFLKFVKEVSERIAEKITSYTIYKTLLDSYPFVAYLVEAEPPYPQKILYVTPSLEKWLGWKPEEISKDW,not soluble
16,TTAYMEYNTTGSVKGLDNVKIRRALNLATNRKGVVQAAVDTGSKPAIAFAPTGLAKTPDGTDLAKYVAPGYEYNKTEAAKLFKEGLAESGLTKLKLTITADADAPAAKNSVDYIKSTWEAALPGLTVEEKFVTFKQRLEDSRKQNFDIVVSLWGGDYPEGSTFYGLFKSDSQNNDGKFANKDYDAAYNKAISEDAMKPAESAKDYKEAEKILFEQGAYNPLYFRSGKGLQNPKLKGVIRNTTGLSIDFTHAYKK,not soluble
17,MSLFGIEVEEEASQIIHILLLQYISKSYSTYSLRSNQGYNPQTLDNNQQIYNSQLSNGNQQSEITCPYCHSTQVTAGKKGFGVGKAIVGGLLLGPVGLLGGLIGSKNIEFVYNCITLSASNNTNSAQWLREQSNNAKNIVNRYLDNDFAEALVAGSALVAMADGVIEYSERERLINYFKTSQEMKHIDTNMVLSKFDCYTQKLQRDFMMGKQNYEGHHHHHH,not soluble
18,MNYSPKQGVRSHGLPHDPFKSSTVPRPIGWISTVSKDGKDNLAPYSQYQNLTWDPPMVMFAANQSVLGDHERKDTVKNAEETGWFVWNMATYDLREAVNLSSKALPPEEDEFEYAGVTKEACIEAPGYRVKESPVHFECEYVQTIRIPTGDPVSTVDIVIGRVAQVHIDDKVILDNGKLDIKSIKPIARLGYYDYTVVNEIFEMKAPAASKEELAGLEGRNFDNQSDEKR,not soluble
19,MGSDKIHHHHHHMKKLVFDYEMKLSFSSPVTDHRFQLRCIPATGPRQQVIDVAVKIEPDVELETTIDSFDSVVMTGFIPEPHTMFNYSVTGIAFVDNAHIKSEIYKPLYRFNSALTVPGPAIEALIGICHERIVSLPADCTPIDQAREVMDEVFKTFVYTPASTTIRTTAEEAFAQRKGVCQDYAHVMLSVCRHVGLTARYIAGLLGGEGATHAWVEIYHDGRWVGLDPTHNRMVDDNYITIAHGRDYRDCMLDIGIFSGCDVKQDQWVNASVHEQGY,not soluble
20,MGSDKIHHHHHHSCTQDSDTFYPSSPEEEHPSVDESRMIPIQLSVDGVDQFYGGAVTRSGETVARLVQPLDSTYDTGYDVETTVESIPLENIVSTRANLGNVQFRVVAYRTDASSADHYAGTAVYKTNGSGVAAIVAKTATPVNSAGQWILGPGTYTFVCYSYGLNSAPAMLSGNWSATVSHNQDFMLCRKEEVVVAPDDRGEFTLGGISFTRQCALLQLAVTANDFTNNTVQQCAATVSNLNSNNITWNAGQTALSTGGTGGAVNFSWSSLNAATVNSNVYKVLPQSSRTLTIKLTTLRIGNIQYNNRVTVNASGRQFAAGGNYKITVKITGNGITVGGATWAKGNVYKSGSNFYFESSQSGYHSGTQGGSFFGWNTLSSTNNTYGGSSFSSDNDPCYQVAPRGTWCTPTANQLQNLGNSGYRSGYLDGKRGGYFGGNKVFLPAMGNRGKNNVNYWPETGYYRSSTGASGKRCYYLEFNQSYAVKNNYYWYWDGFPIRCVKR,not soluble
